{"source": "the supplement of paper PMC12764529", "key": {"[1]": {"assay": "folding stability dG unfold from trypsin proteolysis; higher = more stable", "in_short": "(§1)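 Bayesian fitting of sequencing counts gave K50 for each design. Unfolding free energy followed by setting this against a sequence-predicted unfolded-state K50 and a shared folded-state K50, either per protease or with trypsin and chymotrypsin combined. The designs, under 80 residues and lacking cysteine, were digested in a PA-tagged cDNA display format at 11 threefold-diluted protease concentrations and without protease, and only those with AlphaFold2 dimer inter-PAE above 15 were kept.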"}, "[2]": {"assay": "folding stability dG unfold (combined trypsin and chymotrypsin); higher = more stable", "in_short": "as §1"}, "[3]": {"assay": "folding stability dG unfold from chymotrypsin proteolysis; higher = more stable", "in_short": "as §1"}}, "note": "± gives the half width of the 95% confidence interval."}
{"sequence": "STRTLTVVVEAPTLEEALAAAKALAPPGWKVTVTVERREVVDPETGETRTVLVVTVTIEPAPPPPPAEEKSA [r9_962_TrROS_Hall]", "values": [{"measurement": "folding stability dG unfold", "setting": "[1]", "result": "2.11 ± 0.028", "unit": "kcal/mol"}, {"measurement": "folding stability dG unfold", "setting": "[2]", "result": "2.86 ± 0.091", "unit": "kcal/mol"}, {"measurement": "folding stability dG unfold", "setting": "[3]", "result": "3.16 ± 0.083", "unit": "kcal/mol"}]}
{"sequence": "SVDPAKEKVVLRFTVTFPVPPELGPITADELAALVREILEAFGYEIVSVTVTVEGDRVTVTVEAVFDKRGSA [r9_1134_TrMRF]", "values": [{"measurement": "folding stability dG unfold", "setting": "[1]", "result": "3.76 ± 0.11", "unit": "kcal/mol"}, {"measurement": "folding stability dG unfold", "setting": "[2]", "result": "5.01 ± 0.091", "unit": "kcal/mol"}, {"measurement": "folding stability dG unfold", "setting": "[3]", "result": "5.21 ± 0.086", "unit": "kcal/mol"}]}
{"sequence": "SVEELAKKLAELFPNVKVTVTEEEIDGKKVKTIRIENKKTGKTYEITVLPNGEILITDSNGKKFSLEELLSA [r9_1176_TrROS_Hall]", "values": [{"measurement": "folding stability dG unfold", "setting": "[1]", "result": "4.26 ± 0.27", "unit": "kcal/mol"}, {"measurement": "folding stability dG unfold", "setting": "[2]", "result": "4.86 ± 0.25", "unit": "kcal/mol"}, {"measurement": "folding stability dG unfold", "setting": "[3]", "result": "4.91 ± 0.31", "unit": "kcal/mol"}]}
{"sequence": "SVKVEVSISYDPETNTITITVRVYYKDENGNWTEVATITITIKIELPPPPPKTITLKPGVKTKEEAKKALSA [r9_888_TrROS_Hall]", "values": [{"measurement": "folding stability dG unfold", "setting": "[1]", "result": "2.63 ± 0.28", "unit": "kcal/mol"}, {"measurement": "folding stability dG unfold", "setting": "[2]", "result": "3.01 ± 0.23", "unit": "kcal/mol"}, {"measurement": "folding stability dG unfold", "setting": "[3]", "result": "3.54 ± 0.26", "unit": "kcal/mol"}]}
{"sequence": "SVNPATQVVTVTREVTYPVPPSQGPISEEEAREAVEAELAARGWTLREVRVEYEGDTVTVTAVAERPAAASA [r9_1134_JUSTAS]", "values": [{"measurement": "folding stability dG unfold", "setting": "[1]", "result": "1.04 ± 0.018", "unit": "kcal/mol"}, {"measurement": "folding stability dG unfold", "setting": "[2]", "result": "1.11 ± 0.038", "unit": "kcal/mol"}, {"measurement": "folding stability dG unfold", "setting": "[3]", "result": "1.13 ± 0.053", "unit": "kcal/mol"}]}
{"sequence": "SVPADAKPGVVPERVVLVIVVPPELLDEDGRLRPENLEIAAGEAAEAARKLREAFPDVPIEDVGVVVVEGSA [r9_943_TrMRF]", "values": [{"measurement": "folding stability dG unfold", "setting": "[1]", "result": "0.869 ± 0.02", "unit": "kcal/mol"}, {"measurement": "folding stability dG unfold", "setting": "[2]", "result": "0.705 ± 0.046", "unit": "kcal/mol"}, {"measurement": "folding stability dG unfold", "setting": "[3]", "result": "0.466 ± 0.029", "unit": "kcal/mol"}]}
{"sequence": "SVPPNAPPGMKPKRVEIFIFIPPELYDKDGKISPEQLKKAKGMAKMIKLRLREQYPGYGIDDVKVHIMPGSA [r9_943_TrROS]", "values": [{"measurement": "folding stability dG unfold", "setting": "[1]", "result": "2.76 ± 0.052", "unit": "kcal/mol"}, {"measurement": "folding stability dG unfold", "setting": "[2]", "result": "3.14 ± 0.097", "unit": "kcal/mol"}, {"measurement": "folding stability dG unfold", "setting": "[3]", "result": "3.303 ± 0.022", "unit": "kcal/mol"}]}
{"sequence": "SVPYGVTDVTFEPEKNTATVTAPRPDPSAPVAVGDKKGESVSVTSEVDTAAGTLTVTVPTTAPGNVTVDVPS [r1_138_JUSTAS]", "values": [{"measurement": "folding stability dG unfold", "setting": "[1]", "result": "0.57 ± 0.041", "unit": "kcal/mol"}, {"measurement": "folding stability dG unfold", "setting": "[2]", "result": "0.133 ± 0.12", "unit": "kcal/mol"}, {"measurement": "folding stability dG unfold", "setting": "[3]", "result": "-0.934 ± 0.54", "unit": "kcal/mol"}]}
{"sequence": "SVYNPNNPNIPTKLTVTIPVPEEVVAAGDTAAAEAAAEATAAALAPEGWRVTSVSFPRETGTMTVTLTRPSA [r9_75_JUSTAS]", "values": [{"measurement": "folding stability dG unfold", "setting": "[1]", "result": "1.32 ± 0.022", "unit": "kcal/mol"}, {"measurement": "folding stability dG unfold", "setting": "[2]", "result": "1.33 ± 0.063", "unit": "kcal/mol"}, {"measurement": "folding stability dG unfold", "setting": "[3]", "result": "1.16 ± 0.11", "unit": "kcal/mol"}]}
{"sequence": "SWMFMIEVHDPKNGKERTVPINMPKEQVLDQIREAQEKGPRIEIWGIPPNAIKEIAEEAKLPVEIHPMPPSA [r9_1207_TrROS]", "values": [{"measurement": "folding stability dG unfold", "setting": "[1]", "result": "0.012 ± 0.24", "unit": "kcal/mol"}, {"measurement": "folding stability dG unfold", "setting": "[2]", "result": "0.148 ± 0.14", "unit": "kcal/mol"}, {"measurement": "folding stability dG unfold", "setting": "[3]", "result": "0.409 ± 0.15", "unit": "kcal/mol"}]}
{"sequence": "SWNLRLEIEEVEIEPSDNWIIIMVRVEIEGRNPDDPNKPRPVFEVWVMIPIPLPPPKPKPDPDDPAAAKDSA [r9_357_TrROS]", "values": [{"measurement": "folding stability dG unfold", "setting": "[1]", "result": "2.29 ± 0.25", "unit": "kcal/mol"}, {"measurement": "folding stability dG unfold", "setting": "[2]", "result": "2.8 ± 0.43", "unit": "kcal/mol"}, {"measurement": "folding stability dG unfold", "setting": "[3]", "result": "3.5 ± 0.15", "unit": "kcal/mol"}]}
{"sequence": "SYSIDTSKIEEAAAALPPNAVAELELTANVPESGFTLKLKVTITVDPAGKVTRITFTDPATGKKIATVDVGS [r1_165_JUSTAS]", "values": [{"measurement": "folding stability dG unfold", "setting": "[1]", "result": "2.47 ± 0.069", "unit": "kcal/mol"}, {"measurement": "folding stability dG unfold", "setting": "[2]", "result": "2.1 ± 0.12", "unit": "kcal/mol"}, {"measurement": "folding stability dG unfold", "setting": "[3]", "result": "1.52 ± 0.11", "unit": "kcal/mol"}]}
{"sequence": "SYSTSTVTVPVAADEIDKAKEIAKELAEKLPPNSRVTFNMPAPDGSTFTVEVTVNPDGTITVTVSDSLPAVS [r1_350_JUSTAS]", "values": [{"measurement": "folding stability dG unfold", "setting": "[1]", "result": "1.55 ± 0.041", "unit": "kcal/mol"}, {"measurement": "folding stability dG unfold", "setting": "[2]", "result": "1.34 ± 0.087", "unit": "kcal/mol"}, {"measurement": "folding stability dG unfold", "setting": "[3]", "result": "0.986 ± 0.13", "unit": "kcal/mol"}]}
{"sequence": "SYTLEFEDITLKPVEPGTKISIPGYVKYDGVLYKVTEVTYDPEKGTITITIKVEPEGKPKTLTITIPIPPPS [r1_47_JUSTAS]", "values": [{"measurement": "folding stability dG unfold", "setting": "[1]", "result": "2.24 ± 0.11", "unit": "kcal/mol"}, {"measurement": "folding stability dG unfold", "setting": "[2]", "result": "2.06 ± 0.19", "unit": "kcal/mol"}, {"measurement": "folding stability dG unfold", "setting": "[3]", "result": "1.85 ± 0.086", "unit": "kcal/mol"}]}
{"sequence": "TTVTTPKNGLININLTDKKGNKYTFTAPVKDPVETLEKLKKLIKDLFPEYKDVKVKVVSVDGINIKVVVDIS [r1_389_TrMRF]", "values": [{"measurement": "folding stability dG unfold", "setting": "[1]", "result": "2.66 ± 0.11", "unit": "kcal/mol"}, {"measurement": "folding stability dG unfold", "setting": "[2]", "result": "3.26 ± 0.1", "unit": "kcal/mol"}, {"measurement": "folding stability dG unfold", "setting": "[3]", "result": "3.57 ± 0.061", "unit": "kcal/mol"}]}
{"sequence": "TWTFTIMIPIKPEIREALDSGKPLPIEELVDWIKDEIARMFGFKDVTVKGIEIHPDPNGEIMVMVTIEFKPS [r1_290_TrROS]", "values": [{"measurement": "folding stability dG unfold", "setting": "[1]", "result": "4.29 ± 0.28", "unit": "kcal/mol"}, {"measurement": "folding stability dG unfold", "setting": "[2]", "result": "4.62 ± 0.12", "unit": "kcal/mol"}, {"measurement": "folding stability dG unfold", "setting": "[3]", "result": "4.64 ± 0.12", "unit": "kcal/mol"}]}
{"sequence": "WKIVEITDIEPDPDGWLEIKITIEPPEPGDPIKIMIFHPNQFHEFEIDPESPEIEIRIPPGFDNLHIFIYVS [r1_428_TrROS]", "values": [{"measurement": "folding stability dG unfold", "setting": "[1]", "result": "2.82 ± 0.24", "unit": "kcal/mol"}, {"measurement": "folding stability dG unfold", "setting": "[2]", "result": "3.9 ± 0.57", "unit": "kcal/mol"}, {"measurement": "folding stability dG unfold", "setting": "[3]", "result": "4.42 ± 0.2", "unit": "kcal/mol"}]}
